Measured values taken from the supplement of paper PMC11780869.

Test system: Bacillus subtilis
Test: cleaved RNA product abundance (RNA/gDNA barcode ratio) relative to median wild-type variant (ratio to wild type); higher = more accumulation of the downstream cleavage product
Details: experiment (reporter, strain, medium): exp 8a: truncated aprE reporter, strain BJT201 with 2% xylose (RNase J1 expressed); cleavage site: glnRA (positions -5 to +31 mutated)
Summary of the method: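 Truncated aprE or tetM reporter mRNAs with barcoded RNase Y cleavage-site windows, mutagenized from oligos at a 9% error rate, sat in the B. subtilis chromosome. Cells grew in LB at 37°C from OD600 0.0003 to 0.3. Gel-selected cleaved RNA was reverse transcribed and its barcodes sequenced with those from genomic DNA, collapsing by UMI. Cleaved product abundance equals the RNA:gDNA barcode ratio per construct over the median construct with the unmutated site.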

Sequence | cleaved RNA product abundance
CGACATGTCCCGCTTCTTTCATTAATCCGTAAGCAACTGTTTTGCTATATACTTTTACCTTTTAAGAGGAGGAAT | 0.307
CGACATGTCCCGCTTCTTTCATTAATCCGTAAGCAACTGTTTTGCTATATATATTTACCTTTTAAGAGGAGGAAT | 0.449
CGACATGTCCCGCTTCTTTCATTAATCCGTAAGCAACTGTTTTGCTATGTACATTTACCTTTTAAGAGGAGGAAT | 0.0895
CGACATGTCCCGCTTCTTTCATTAATCCGTAAGCAACTGTTTTGGTATATACATTTACCTTTTAAGAGGAGGAAT | 0.312
CGACATGTCCCGCTTCTTTCATTAATCCGTAAGCAACTGTTTTGTTATATACATTTACCTTTTAAGAGGAGGAAT | 0.391
CGACATGTCCCGCTTCTTTCATTAATCCGTAAGCAACTGTTTTTCTATATACATTTACCTTTTAAGAGGAGGAAT | 0.508
CGACATGTCCCGCTTCTTTCATTAATCCGTAAGCAACTTTTTTGCTATATACATTTACCTTTTAAGAGGAGGAAT | 0.82
CGACATGTCCCGCTTCTTTCATTAATCCGTAAGCAATTGTTTTGCTATATACATTTACCTTTTAAGAGGAGGAAT | 0.524
CGACATGTCCCGCTTCTTTCATTAATCCGTAAGCATCTGTTTTGCTATATACATTTACCTTTTAAGAGGAGGAAT | 0.322
CGACATGTCCCGCTTCTTTCATTAATCCGTAAGCTACTGTTTTGCTATATACATTTACCTTTTAAGAGGAGGAAT | 0.123
CGACATGTCCCGCTTCTTTCATTAATCCGTAAGGAACTGTTTTGCTATATACATTTACCTTTTAAGAGGAGGAAT | 0.32
CGACATGTCCCGCTTCTTTCATTAATCCGTAATCAACTGTTTTGCTATATACATTTACCTTTTAAGAGGAGGAAT | 0.265
CGACATGTCCCGCTTCTTTCATTAATCCGTCAACAACTGTTTTGCTATATACATTTACCTTTTAAGAGGAGGAAT | 0.384
CGACATGTCCCGCTTCTTTCATTAATCCGTCAGAAACTGTTTTGCTATATACATTTACCTTTTAAGAGGAGGAAT | 0.185
CGACATGTCCCGCTTCTTTCATTAATCCGTCAGCAAATGTTTTGCTATATACATTTACCTTTTAAGAGGAGGAAT | 0.398
CGACATGTCCCGCTTCTTTCATTAATCCGTCAGCAACTATTTTGCTATATACATTTACCTTTTAAGAGGAGGAAT | 0.387
CGACATGTCCCGCTTCTTTCATTAATCCGTCAGCAACTGTATTGCTATATACATTTACCTTTTAAGAGGAGGAAT | 0.214
CGACATGTCCCGCTTCTTTCATTAATCCGTCAGCAACTGTTTAGCTATATACATTTACCTTTTAAGAGGAGGAAT | 0.305
CGACATGTCCCGCTTCTTTCATTAATCCGTCAGCAACTGTTTTGCTATATACATTAACCTTTTAAGAGGAGGAAT | 0.528
CGACATGTCCCGCTTCTTTCATTAATCCGTCAGCAACTGTTTTGCTATATACATTTAACTTTTAAGAGGAGGAAT | 0.483
CGACATGTCCCGCTTCTTTCATTAATCCGTCAGCAACTGTTTTGCTATATACATTTACCATTTAAGAGGAGGAAT | 0.704
CGACATGTCCCGCTTCTTTCATTAATCCGTCAGCAACTGTTTTGCTATATACATTTACCTTTTAAGAGGAGGAAT | 0.406

Sequence | cleaved RNA product abundance
CGACATGTCCCGCTTCTTTCATTAATCCGTCAGCAACTGTTTTGCTATATATATTTACCTTTTAAGAGGAGGAAT | 0.367
CGACATGTCCCGCTTCTTTCATTAATCCGTCAGCAACTGTTTTGCTATATTCATTTACCTTTTAAGAGGAGGAAT | 0.112
CGACATGTCCCGCTTCTTTCATTAATCCGTCAGCAACTGTTTTGTTATATACATTTACCTTTTAAGAGGAGGAAT | 0.485
CGACATGTCCCGCTTCTTTCATTAATCCGTCAGCAACTTTTTTGCTATATACATTTACCTTTTAAGAGGAGGAAT | 0.621
CGACATGTCCCGCTTCTTTCATTAATCCGTCCGCAACTGTTTTGCTATATACATTTACCTTTTAAGAGGAGGAAT | 0.264
CGACATGTCCCGCTTCTTTCATTAATCCGTGAACAACTGTTTTGCTATATACATTTACCTTTTAAGAGGAGGAAT | 0.232
CGACATGTCCCGCTTCTTTCATTAATCCGTGAGCAACTATTTTGCTATATACATTTACCTTTTAAGAGGAGGAAT | 0.988
CGACATGTCCCGCTTCTTTCATTAATCCGTGAGCAACTGTTTAGCTATATACATTTACCTTTTAAGAGGAGGAAT | 0.335
CGACATGTCCCGCTTCTTTCATTAATCCGTGAGCAACTGTTTTGATATATACATTTACCTTTTAAGAGGAGGAAT | 0.427
CGACATGTCCCGCTTCTTTCATTAATCCGTGAGCAACTGTTTTGCTATACACATTTACCTTTTAAGAGGAGGAAT | 0.0879
CGACATGTCCCGCTTCTTTCATTAATCCGTGAGCAACTGTTTTGCTATATAAATTTACCTTTTAAGAGGAGGAAT | 0.357
CGACATGTCCCGCTTCTTTCATTAATCCGTGAGCAACTGTTTTGCTATATACATTTAACTTTTAAGAGGAGGAAT | 0.854
CGACATGTCCCGCTTCTTTCATTAATCCGTGAGCAACTGTTTTGCTATATACATTTACCATTTAAGAGGAGGAAT | 0.655
CGACATGTCCCGCTTCTTTCATTAATCCGTGAGCAACTGTTTTGCTATATACATTTACCTTTTAAGAGGAGGAAT | 0.549
CGACATGTCCCGCTTCTTTCATTAATCCGTGAGCAACTGTTTTGCTATATACATTTACTTTTTAAGAGGAGGAAT | 0.477
CGACATGTCCCGCTTCTTTCATTAATCCGTGAGCAACTGTTTTGCTATATACTTTTACCTTTTAAGAGGAGGAAT | 0.154
CGACATGTCCCGCTTCTTTCATTAATCCGTGAGCAACTGTTTTGCTATATATATTTACCTTTTAAGAGGAGGAAT | 0.87
CGACATGTCCCGCTTCTTTCATTAATCCGTGAGCAACTGTTTTGCTATATTCATTTACCTTTTAAGAGGAGGAAT | 0.177
CGACATGTCCCGCTTCTTTCATTAATCCGTGAGCAACTGTTTTGCTTTATACATTTACCTTTTAAGAGGAGGAAT | 0.184
CGACATGTCCCGCTTCTTTCATTAATCCGTGAGCAAGTGTTTTGCTATATACATTTACCTTTTAAGAGGAGGAAT | 0.375
CGACATGTCCCGCTTCTTTCATTAATCCGTGAGCAGCTGTTTTGCTATATACATTTACCTTTTAAGAGGAGGAAT | 0.231
CGACATGTCCCGCTTCTTTCATTAATCCGTGATCAACTGTTTTGCTATATACATTTACCTTTTAAGAGGAGGAAT | 0.346

Sequence | cleaved RNA product abundance
CGACATGTCCCGCTTCTTTCATTAATCCGTTAAAAACTGTTTTGCTATATACATTTACCTTTTAAGAGGAGGAAT | 0.292
CGACATGTCCCGCTTCTTTCATTAATCCGTTAACAAATGTTTTGCTATATACATTTACCTTTTAAGAGGAGGAAT | 0.287
CGACATGTCCCGCTTCTTTCATTAATCCGTTAACAACAGTTTTGCTATATACATTTACCTTTTAAGAGGAGGAAT | 0.183
CGACATGTCCCGCTTCTTTCATTAATCCGTTAACAACTATTTTGCTATATACATTTACCTTTTAAGAGGAGGAAT | 0.275
CGACATGTCCCGCTTCTTTCATTAATCCGTTAACAACTGATTTGCTATATACATTTACCTTTTAAGAGGAGGAAT | 0.248
CGACATGTCCCGCTTCTTTCATTAATCCGTTAACAACTGTATTGCTATATACATTTACCTTTTAAGAGGAGGAAT | 0.316
CGACATGTCCCGCTTCTTTCATTAATCCGTTAACAACTGTCTTGCTATATACATTTACCTTTTAAGAGGAGGAAT | 0.0713
CGACATGTCCCGCTTCTTTCATTAATCCGTTAACAACTGTGTTGCTATATACATTTACCTTTTAAGAGGAGGAAT | 0.24
CGACATGTCCCGCTTCTTTCATTAATCCGTTAACAACTGTTATGCTATATACATTTACCTTTTAAGAGGAGGAAT | 0.219
CGACATGTCCCGCTTCTTTCATTAATCCGTTAACAACTGTTTGGCTATATACATTTACCTTTTAAGAGGAGGAAT | 0.159
CGACATGTCCCGCTTCTTTCATTAATCCGTTAACAACTGTTTTACTATATACATTTACCTTTTAAGAGGAGGAAT | 0.222
CGACATGTCCCGCTTCTTTCATTAATCCGTTAACAACTGTTTTCCTATATACATTTACCTTTTAAGAGGAGGAAT | 0.263
CGACATGTCCCGCTTCTTTCATTAATCCGTTAACAACTGTTTTGATATATACATTTACCTTTTAAGAGGAGGAAT | 0.235
CGACATGTCCCGCTTCTTTCATTAATCCGTTAACAACTGTTTTGCAATATACATTTACCTTTTAAGAGGAGGAAT | 0.185
CGACATGTCCCGCTTCTTTCATTAATCCGTTAACAACTGTTTTGCCATATACATTTACCTTTTAAGAGGAGGAAT | 0.114
CGACATGTCCCGCTTCTTTCATTAATCCGTTAACAACTGTTTTGCGATATACATTTACCTTTTAAGAGGAGGAAT | 0.215
CGACATGTCCCGCTTCTTTCATTAATCCGTTAACAACTGTTTTGCTAAATACATTTACCTTTTAAGAGGAGGAAT | 0.202
CGACATGTCCCGCTTCTTTCATTAATCCGTTAACAACTGTTTTGCTATAAACATTTACCTTTTAAGAGGAGGAAT | 0.207
CGACATGTCCCGCTTCTTTCATTAATCCGTTAACAACTGTTTTGCTATACACATTTACCTTTTAAGAGGAGGAAT | 0.162
CGACATGTCCCGCTTCTTTCATTAATCCGTTAACAACTGTTTTGCTATATAAATTTACCTTTTAAGAGGAGGAAT | 0.227
CGACATGTCCCGCTTCTTTCATTAATCCGTTAACAACTGTTTTGCTATATACAATTACCTTTTAAGAGGAGGAAT | 0.242
CGACATGTCCCGCTTCTTTCATTAATCCGTTAACAACTGTTTTGCTATATACACTTACCTTTTAAGAGGAGGAAT | 0.329
